In PMC4900187:

What follows are substances tested against FITC–BID BH3 (assay: fluorescence polarisation).

Sequence of MCL-1ΔNΔC (Q07820 172-327, stated change not applied): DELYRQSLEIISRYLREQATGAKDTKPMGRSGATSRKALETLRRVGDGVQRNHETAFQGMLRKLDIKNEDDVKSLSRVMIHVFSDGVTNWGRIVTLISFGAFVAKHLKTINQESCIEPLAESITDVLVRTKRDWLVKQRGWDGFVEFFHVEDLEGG
Sequence of MAIM1-derivatized MCL-1ΔNΔC (Q07820 172-327, stated change not applied): as above

EC50 [µM] | Substance
0.085 | MAIM1-derivatized MCL-1ΔNΔC (from UniProt Q07820 172-327) (domain or fragment)
0.021 | MCL-1ΔNΔC (from UniProt Q07820 172-327) (domain or fragment)
0.109 | MCL-1ΔNΔC C286W (from UniProt Q07820 172-327) (domain or fragment)
